# Assay results as given in US20200261490.
# Tests used:
# [1] = target: recombinant human stanniocalcin 1, C-terminally myc-his-tagged
# [2] = target: recombinant human stanniocalcin 2, C-terminally myc-his-tagged
# [3] = target: untagged human STC2 (transgene-derived STC2 of transgenic mice; endogenous STC2 of 293T cells)
# [4] = target: STC2(C120A), human stanniocalcin 2 with cysteine 120 replaced by alanine, C-terminally myc-his-tagged
protein,measurement,setting,value
murine PAPP-A (protein) RGAEEPSPPSRALYFSGRGEQLRLRADLELPRDAFTLQVWLRAEGGQKSPAVITGLYDKCSYTSRDRGWVMGIHTTSDQGNRDPRYFFSLKTDRARKVTTIDAHRSYLPGQWVHLAATYDGRLMKLYMNGAQVATSAEQVGGIFSPLTQKCKVLMLGGSALNHNFRGHIEHFSLWKVARTQREIVSDMETRGLHTPLPQLLLQENWDNVKRTWSPMKDGNSPQVEFSNAHGFLLDTNLEPPLCGQTLCDNTEVISSYNQLPSFRQPKVVRYRVVNIYDDHHENPTVSWQQIDFQHQQLAEAFQHYNISWELEVLNINSSSLRHRLILANCDISKIGDEKCDPECNHTLTGHDGGDCRQLRYPAFMKKQQNGVCDMDCNYERFNFDGGECCDPDITDVTKTCFDPDSPHRAYLDVNELKNILRLDGSTHLNIFFANSSEEELAGVATWPWDKEALMHLGGIVLNPSFYGIPGHTHTMIHEIGHSLGLYHIFRGISEIQSCSDPCMETEPSFETGDLCNDTNPAPKHKFCGDPGPGNDTCGFHGFFNTPYNNFMSYADDDCTDSFTPNQVSRMHCYLDLVYQSWQPSRKPAPVALAPQVVGHTMDSVMLEWFPPIDGHFFERELGSACDLCLEGRILVQYAFNASSPMPCGPSGHWSPREAEGHPDVEQPCKSSVRTWSPNSAVNPHTVPPACPEPQGCYLELEFRYPLVPESLTIWVTFVSSDWDSSGAVNDIKLLTISGKNISLGPQNVFCDIPLTIRLRDVGEEVYGIQIYTLDEHLEIDAAMLTSTVDSPLCLQCKPLQYKVLRDPPLLEDVASLLHLNRRFMDTDLKLGSVYQYRIITISGNEESEPSPAAIYTHGSGYCGDGVIQKDQGEECDDMNKVNGDGCSLFCKQEVSFNCIDEPSRCYFHDGDGMCEEFEQKTSIKDCGVYTPQGFLDQWASNASVSHQDQQCPGWVVIGQPAASQVCRTKVIDLSEGISQHAWYPCTITYPYYHLPQTTFWLQTYFSQPMVAAAVIIHLVTDGTYYGDQKQETISVQLLDTKDQSHDLGLHVLSCRNNPLIIPVVHDLSQPFYHSQAVHVSFSSPLVAISGVALRSFDNFDPVTLSSCQRGETYSPAEQSCVHFACQAADCPELAVGNASLNCSSNHHYHGAQCTVSCQTGYVLQIQRDDELIKSQVGPSITVTCTEGKWNKQVACEPVDCGIPDHHHVYAASFSCPEGTTFGRRCSFQCRHPAQLKGNNSFLTCMEDGLWSFPEALCELMCLAPPPVPNADLQTARCRENKHKVGSFCKYKCKPGYHVPGSSRKSKKRAFKTQCTQDGSWQEGTCVPVTCDPPPPKFHGLYQCTNGFQFNSECRIKCEDSDASQGRGSNIIHCRKDGTWSGSFHVCREMQGQCSAPNQLNSNLKLQCPDGYAIGSECAISCLDHNSESIILPVNLTVRDIPHWMNPTRVQRIVCTAGLQWYPHPALIHCVKGCEPFMGDNYCDAINNRAFCNYDGGDCCTSTVKTKKVTPFPMSCDLQNDCACRDPEAQEHNRKDLRGYSHG,proteolytic activity of murine PAPP-A towards radiolabeled IGFBP-4,[1],"Murine PAPP-A and PAPP-A2 are inhibited by STC1 and STC2, but not STC2(C120A)"
same,proteolytic activity of murine PAPP-A towards radiolabeled IGFBP-4,[2],"Murine PAPP-A and PAPP-A2 are inhibited by STC1 and STC2, but not STC2(C120A)"
same,proteolytic activity towards IGFBP-4 in conditioned media of STC2 transgenic mouse embryonic fibroblasts,[3],conditioned media from MEFs derived from STC2 transgenic mice showed a marked reduction in PAPP-A activity
same,proteolytic activity of murine PAPP-A towards radiolabeled IGFBP-4,[4],"Murine PAPP-A and PAPP-A2 are inhibited by STC1 and STC2, but not STC2(C120A)"
